Values joined by “and” are separate entries in the source; they are usually repeats but may differ in a detail not shown here. Identical values can stand only once. Like-named read-outs stand apart in the source and are kept apart here.

The target in assay [1] is T1, human IL-1β (human, UniProt P01584 117-269). As to the kind of experiment: cell-based or functional assay.
Assay [2] concerns the target T1, human IL-1β. Nature of the assay: BIAcore kinetic analysis of the dAb.
Assay [3] deals with T2, human IL-1α (human, UniProt P01583 113-271).
T2 sequence (looked up): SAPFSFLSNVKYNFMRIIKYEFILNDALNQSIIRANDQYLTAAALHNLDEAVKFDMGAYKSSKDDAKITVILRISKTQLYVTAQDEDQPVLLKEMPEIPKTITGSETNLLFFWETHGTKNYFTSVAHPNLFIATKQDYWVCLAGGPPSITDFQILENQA
As to the kind of experiment: cell-based or functional assay.

Assay [4] has as its target T1, human IL-1β. As to the kind of experiment: cell-based or functional assay. The source holds these as a separate data set.
For assay [5], the target named is T2, human IL-1α. As to the kind of experiment: cell-based or functional assay. This is another data set of the same source.
Assay [6] addresses T1, human IL-1β. Nature of the assay: cell-based or functional assay. The source holds these as a separate data set.
Assay [7] deals with T2, human IL-1α. Nature of the assay: Receptor Binding Assay, IgG; value beside the ABT1 clone.
Assay [8] has as its target T1, human IL-1β. Nature of the assay: Receptor Binding Assay, IgG; value beside the ABT2 clone.
The target of assay [9] is T1, human IL-1β. Nature of the assay: cell-based or functional assay. This is another data set of the same source.
Assay [10] has as its target T2, human IL-1α. Nature of the assay: cell-based or functional assay. This is another data set of the same source.
For assay [11], the target named is T2, human IL-1α. As to the kind of experiment: BIAcore kinetic analysis of the dAb. For orientation: Surface plasmon resonance follows binding to a sensor surface in real time, without labels.
The target of assay [12] is T2, human IL-1α. Nature of the assay: method not given.
Assay [13] deals with T2, human IL-1α. As to the kind of experiment: BIAcore kinetic analysis of the dAb. This is another data set of the same source.
Assay [14] addresses T2, human IL-1α. As to the kind of experiment: cell-based or functional assay. This is another data set of the same source.
Assay [15] deals with T2, human IL-1α. As to the kind of experiment: cell-based or functional assay. The source holds these as a separate data set.
Assay [16] addresses T2, human IL-1α. Nature of the assay: BIAcore kinetic analysis of the dAb. The source holds these as a separate data set.
Assay [17] addresses T2, human IL-1α. Nature of the assay: cell-based or functional assay. This is another data set of the same source.
Assay [18] has as its target T2, human IL-1α. As to the kind of experiment: BIAcore kinetic analysis of the dAb. This is another data set of the same source.
Assay [19] addresses T2, human IL-1α. As to the kind of experiment: BIAcore kinetic analysis of the dAb. The source holds these as a separate data set.
For assay [20], the target named is T2, human IL-1α. As to the kind of experiment: BIAcore kinetic analysis of the dAb. This is another data set of the same source.
Assay [21] addresses T2, human IL-1α. As to the kind of experiment: BIAcore, IL-1α coated chip, dAb flowed over.
The target in assay [22] is T2, human IL-1α. Nature of the assay: BIAcore kinetic analysis of the dAb. This is another data set of the same source.

B1: ABT2-13 (other)
VH: EVQLLESGGGLVQPGGSLRLSCAASGFTFRDYVMYWARQAPGKGLEWVSRIDPMGSSTYYADSVKGRFTISRDNSKNTLYLQMNSLRAEDTAVYYCAKPEGNFDYWGQGTLVTVSS
notes: dAb, VH, to IL-1β; also called dAb ABT2-13
B1: in the assay with human IL-1β [1], the “MRC5 ND10” value is 100 nM and the “MRC5 ND50” value turned out to be 800 nM. In the assay with human IL-1β [2], the Kd (as a rule, the free concentration of one partner at which half of the binding sites on the other are occupied at equilibrium, for simple one-to-one binding) came out at 930 nM; the koff (in general, the rate constant with which the complex falls apart) is 0.075 s⁻¹; the kon – broadly, a measure of how fast the partners come together – came out at 81000 M⁻¹ s⁻¹.

B2: ABT2-65-166/ABT1-95-A3 huIgG1/K wt (bispecific antibody, V domains shown)
VH: EVQLLESGGGLVQPGGSLRLSCAASGFTFEDYQMGWVRQAPGKGLEWVSSISAMGGRTYYADSVKGRFTISRDNSKNTLYLQMNSLRAEDTAVYYCAQNLVRLGRSRWMFDYWGQGTLVTVSS
VL: DIQMTQSPSSLSASVGDRVTITCRASKPGVRNMRWYQQKPGKAPKLLIYSVSYLEPGVPSRFSGSGSGTDFTLTISSLQPEDFATYHCLQGYRWPPTFGQGTKVEIKR
notes: hu IgG1/K wt; also called 1-95-A3 / 2-65-166
As for B2, in the assay with human IL-1α [3], the “IL-1α IC50” value was 0.026 nM and 0.0178 nM. Also, the “IL-1β IC50” value with human IL-1β [4] is 0.17 nM. For the same molecule, in the assay with human IL-1α [5], the “MRC5 IL-1α” value was 0.017 nM. The “MRC5 IL-1β” value with human IL-1β [6] came out at 0.15 nM. The results for the IC50 with human IL-1α [7] and with human IL-1β [8] were 0.083 nM and 0.709 nM, respectively.

B3: ABT2-65-17 (other)
VH: EVQLLESGGGLVQPGGSLRLSCVASGFTFEDYQMGWVRQAPGKGLEWVSSISAMGNRTYYADSVKGRFTISRDDSKNTLYLQMNSLRAEDTAVYYCAQNLVRLGRSRWMFDYWGQGTLVTVSS
With B3, the “MRC5 ND50” value with human IL-1β [9] came out at 2 nM.

B4: ABT2-65-166 (other)
VH: EVQLLESGGGLVQPGGSLRLSCAASGFTFEDYQMGWVRQAPGKGLEWVSSISAMGGRTYYADSVKGRFTISRDNSKNTLYLQMNSLRAEDTAVYYCAQNLVRLGRSRWMFDYWGQGTLVTVSS
For B4, the “MRC5 ND50” value with human IL-1β [9] worked out at 4 nM.

B5: ABT2-65-166/ABT1-95-A6 hu IgG1/K wt (bispecific antibody, V domains shown)
VH: EVQLLESGGGLVQPGGSLRLSCAASGFTFEDYQMGWVRQAPGKGLEWVSSISAMGGRTYYADSVKGRFTISRDNSKNTLYLQMNSLRAEDTAVYYCAQNLVRLGRSRWMFDYWGQGTLVTVSS
VL: DIQMTQSPSSLSASVGDRVTITCRASKPGVRNMRWYQQKPGKAPKLLIYAKSYLEPGVPSRFSGSGSGTDFTLTISSLQPEDFATYHCKQGYRWPVQFGQGTKVEIKR
notes: hu IgG1/K wt; also called 1-95-A6 / 2-65-166
For B5, the “IL-1β IC50” value in the assay with human IL-1β [4] was determined as 0.32 nM. The “MRC5 IL-1α” value in the assay with human IL-1α [5] was found to be 0.019 nM. Moreover, in the assay with human IL-1β [6], the “MRC5 IL-1β” value was 0.207 nM. Moreover, the IC50 (usually the midpoint of a concentration-inhibition curve) was 0.108 nM with human IL-1α [7] and 0.537 nM with human IL-1β [8].

B6: ABT1-86 (other)
VH: EVQLLESGGGLVQPGGSLRLSCAASGFTFDRYIMAWVRQAPGKGLEWVSSITPSGAATYYADSVKGRFTISRDNSKNTLYLQMNSLRAEDTAVYYCAEEPADRYSTWTFDYWGQGTLVTVSS
notes: dAb, VH, to IL-1α
On to B6, for which, in the assay with human IL-1α [10], the “MRC5 ND10” value was less than 200 nM and the “MRC5 ND50” value worked out at 900 nM. In the assay with human IL-1α [11], this molecule came in with an equilibrium dissociation constant (Kd) of 110 nM, an off-rate (koff) of 0.09 s⁻¹ and a kon of 820000 M⁻¹ s⁻¹.

B7: ABT1-95 (other)
VL: DIQMTQSPSSLSASVGDRVTITCRASQPIHGNLRWYQQKPGKAPKLLIYNISNLQSGVPSRFSGSGSGTDFTLTISSLQPEDFATYYCQQGYRWPVTFGQGTKVEIKR
notes: dAb, Vκ, to IL-1α; also called dAb ABT1-95
B7: in the assay with human IL-1α [10], the “MRC5 ND10” value is 150 nM and the “MRC5 ND50” value came out at 700 nM. Also, the affinity in the assay with human IL-1α [12], expressed as Kd, was 200 nM. In addition, in the assay with human IL-1α [13], the dissociation constant Kd amounted to 45 nM, the off-rate (koff) came to 0.022 s⁻¹ and the on-rate constant (kon) is 490000 M⁻¹ s⁻¹.

B8: ABT2-108-538x/ABT1-95-15 huIgG1/K wt (bispecific antibody, V domains shown)
VH: EVQLLESGGGLVQPGGSLRLSCAASGFTFADEGMMWVRQAPGKGLEWVSRITYSGKNTYYADSVKGRFTISRDNSKNTLYLQMNSLRAEDTAVYYCAKYTGRILGHHLFDYWGQGTLVTVSS
VL: DIQMTQSPSSLSASVGDRVTITCRASQPIVRNLRWYQQKPGKAPKLLIYSSSYLEPGVPSRFSGSGSGTDFTLTISSLQPEDFATYHCQQGYRWPVTFGQGTKVEIKR
notes: hu IgG1/K wt
Take B8: in the assay with human IL-1α [5], the “MRC5 IL-1α” value turned out to be 8 nM. Also, the “MRC5 IL-1β” value in the assay with human IL-1β [6] was 0.042 nM. The values for the IC50 with human IL-1α [7] and with human IL-1β [8] were 0.54 nM and 0.071 nM, respectively.

B9: ABT2-108-620x/ABT1-95-15 huIgG1/K wt (bispecific antibody, V domains shown)
VH: EVQLLESGGGLVQPGGSLRLSCAASGFTFAEESWMWVRQAPGKGLEWVSRIGQDGKNTYYREDVKGRFTISRDNSKNTLYLQMNSLRAEDTAVYYCAKYTGRIMGHHLFDYWGQGTLVTVSS
VL: DIQMTQSPSSLSASVGDRVTITCRASQPIVRNLRWYQQKPGKAPKLLIYSSSYLEPGVPSRFSGSGSGTDFTLTISSLQPEDFATYHCQQGYRWPVTFGQGTKVEIKR
Consider B9, for which the “MRC-5 IL-1a inhibition assay EC50” value with human IL-1α [14] came to 5.07 nM. In addition, the “IL-1α IC50” value with human IL-1α [3] is 5 nM. Moreover, the “IL-1β IC50” value with human IL-1β [4] is 0.04 nM.

B10: ABT1-141 (other)
VL: DIQMTQSPSSLSASVGDRVTITCRASQWIQKQLAWYQQKPGKAPKLLIYSSSYLQSGVPSRFSGSGSGTDFTLTISSLQPEDFATYYCQQHLRVPFTFGQGTKVEIKR
notes: dAb, Vκ, to IL-1α; also called dAb ABT1-141
For B10, the “MRC5 ND50” value with human IL-1α [15] worked out at 70 nM. In the assay with human IL-1α [10], the “MRC5 ND10” value worked out at 10 nM and the “MRC5 ND50” value is 70 nM. In the assay with human IL-1α [16], this molecule had a Kd of 300 nM, a koff of 0.0039 s⁻¹ and a kon of 13000 M⁻¹ s⁻¹.

B11: ABT1-6-23 (other)
VH: EVQLLESGGGLVQPGGSLRLSCAASGFTFVRYDMAWVRQAPGKGLEWVSSIYKSGALTSYADSVKGRFTISRDNSKNTLYLQMNSLRAEDTAVYYCAKGWASFDYWGQGTLVTVSS
notes: dAb, VH, to IL-1α; also called dAb ABT1-6-23
Take B11: in the assay with human IL-1α [10], the “MRC5 ND10” value came out at 3 nM and the “MRC5 ND50” value came out at 30 nM. The “MRC5 ND50” value in the assay with human IL-1α [17] stood at 0.03 µM. In the assay with human IL-1α [18], this molecule displayed a Kd of 61 nM, a koff of 0.012 s⁻¹ and an on-rate constant (kon) of 200000 M⁻¹ s⁻¹.

B12: ABT1-96 (other)
VH: EVQLLESGGGLVQPGGSLRLSCAASGFTFNQYNMFWVRQAPGKGLEWVSVISGSGRFTYYADSVKGRFTISRDNSKNTLYLQMNSLRAEDTAVYYCAKGWWRRDPPFDYWGQGTLVTVSS
notes: dAb, VH, to IL-1α; also called dAb ABT1-96
For B12, in the assay with human IL-1α [10], the “MRC5 ND10” value is 3 nM and the “MRC5 ND50” value came to 11 nM. Besides, in the assay with human IL-1α [19], binding was put at a Kd of 1.1 nM, the koff is 0.00039 s⁻¹ and the on-rate constant (kon) was 370000 M⁻¹ s⁻¹.

B13: ABT1-122 (other)
VL: DIQMTQSPSSLSASVGDRVTITCRASQPIWTELNWYQQKPGKAPKLLIYGSSSLQSGVPSRFSGSGSGTDFTLTISSLQPEDFATYYCQQFAYFPATFGQGTKVEIKR
notes: dAb, Vκ, to IL-1α
In the case of B13, in the assay with human IL-1α [10], the “MRC5 ND10” value is 9 nM and the “MRC5 ND50” value came out at 50 nM. Further, in the assay with human IL-1α [20], binding was put at a Kd of 42 nM, the off-rate (koff) came to 0.28 s⁻¹ and the kon turned out to be 6.6e+06 M⁻¹ s⁻¹. Also, the Kd in the assay with human IL-1α [21] fell in the range of 40 to 86 nM.

B14: ABT1-98 (other)
VH: EVQLLESGGGLVQPGGSLRLSCAASGFTFDGYIMSWVRQAPGKGLEWVSTISPLGSVTYYADSVKGRFTISRDNSKNTLYLQMNSLRAEDTAVYYCAKKGPWFDYWGQGTLVTVSS
notes: dAb, VH, to IL-1α; also called dAb ABT1-98
For B14, in the assay with human IL-1α [10], the “MRC5 ND10” value is 10 nM and the “MRC5 ND50” value is 30 nM. Also, in the assay with human IL-1α [22], the Kd amounted to 13 nM, the off-rate (koff) was 0.027 s⁻¹ and the kon was 2e+06 M⁻¹ s⁻¹.
